According to patent US10745460B2, “Peptides and combination of peptides for use in immunotherapy against various tumors” (Immatics Biotechnologies GmbH, priority 2015, dated 2020):

target: HLA-A*02:01 (Homo sapiens, UniProt P04439, D140Y/D185E/D98H/E176V/E277Q/G131W/G231S/I119V/I121R/I166T/I218V/L300P/L318F/N151K/N90K/P208A/P217A/Q86G/Q94H/R138H/R169H/T345S); assay: MHC binding assay: UV-ligand exchange with β2m ELISA (peptide exchange yield); details: binding to HLA-A*02:01 evaluated by peptide exchange yield (UV-ligand exchange, β2m ELISA)
Description: Candidate peptides for T cell based therapies according to the present invention were further tested for their MHC binding capacity (affinity). The individual peptide-MHC complexes were produced by UV-ligand exchange, where a UV-sensitive peptide is cleaved upon UV-irradiation, and exchanged with the peptide of interest as analyzed. Only peptide candidates that can effectively bind and stabilize the peptide-receptive MHC molecules prevent dissociation of the MHC complexes. To determine the yield of the exchange reaction, an ELISA was performed based on the detection of the light chain (β2m) of stabilized MHC complexes. The assay was performed as generally described in Rodenko et al. (Rodenko et al., 2006).
96 well MAXISorp plates (NUNC) were coated over night with 2 ug/ml streptavidin in PBS at room temperature, washed 4× and blocked for 1 h at 37° C. in 2% BSA containing blocking buffer. Refolded HLA-A*02:01/MLA-001 monomers served as standards, covering the range of 15-500 ng/ml. Peptide-MHC monomers of the UV-exchange reaction were diluted 100 fold in blocking buffer. Samples were incubated for 1 h at 37° C., washed four times, incubated with 2 ug/ml HRP conjugated anti-β2m for 1 h at 37° C., washed again and detected with TMB solution that is stopped with […]. Absorption was measured at 450 nm. Candidate peptides that show a high exchange yield (preferably higher than 50%, most preferred higher than 75%) are generally preferred for a generation and production of antibodies or fragments thereof, and/or T cell receptors or fragments thereof, as they show sufficient avidity to the MHC molecules and prevent dissociation of the MHC complexes.

Substance | Peptide exchange
198 (ILTNKVVSV; listed as Homo sapiens) [compound 198] | ++ (≥20% = ++)
279 (VLMDEGAVLTL; listed as Homo sapiens) [compound 279] | ++ (≥20% = ++)
117 (TLLEGISRA; listed as Homo sapiens) [compound 117] | ++ (≥20% = ++)
149 (NMADGQLHQV; listed as Homo sapiens) [compound 149] | ++ (≥20% = ++)
95 (KLIDEDEPLFL; listed as Homo sapiens) [compound 95] | +++ (≥50 = +++)
113 (FLFLKEVKV; listed as Homo sapiens) [compound 113] | ++ (≥20% = ++)
29 (KMISAIPTL; listed as Homo sapiens) [compound 29] | ++ (≥20% = ++)
146 (VVAAHLAGA; listed as Homo sapiens) [compound 146] | ++ (≥20% = ++)
195 (VIIQNLPAL; listed as Homo sapiens) [compound 195] | +++ (≥50 = +++)
91 (LLPSIFLMV; listed as Homo sapiens) [compound 91] | ++ (≥20% = ++)
76 (FTAEFLEKV; listed as Homo sapiens) [compound 76] | +++ (≥50 = +++)
102 (GLYPVTLVGV; listed as Homo sapiens) [compound 102] | +++ (≥50 = +++)
16 (SLADLSLLL; listed as Homo sapiens) [compound 16] | +++ (≥50 = +++)
12 (RLLDPKTIFL; listed as Homo sapiens) [compound 12] | +++ (≥50 = +++)
13 (RLHDENILL; listed as Homo sapiens) [compound 13] | +++ (≥50 = +++)
26 (VLDGKVAVV; listed as Homo sapiens) [compound 26] | +++ (≥50 = +++)
150 (VLLDMVHSL; listed as Homo sapiens) [compound 150] | +++ (≥50 = +++)
10 (QLIEKNWLL; listed as Homo sapiens) [compound 10] | +++ (≥50 = +++)
123 (QTAPEEAFIKL; listed as Homo sapiens) [compound 123] | + (≥10% = +)
161 (NLLDENVCL; listed as Homo sapiens) [compound 161] | ++++ (≥75% = ++++)

Substance | Peptide exchange
239 (VIIKGLEEITV; listed as Homo sapiens) [compound 239] | +++ (≥50 = +++)
70 (GLTEKTVLV; listed as Homo sapiens) [compound 70] | ++ (≥20% = ++)
45 (FLPVSVVYV; listed as Homo sapiens) [compound 45] | +++ (≥50 = +++)
36 (TVLQELINV; listed as Homo sapiens) [compound 36] | +++ (≥50 = +++)
184 (ALDSTIAHL; listed as Homo sapiens) [compound 184] | ++ (≥20% = ++)
256 (FLNDIFERI; listed as Homo sapiens) [compound 256] | +++ (≥50 = +++)
4 (VLFGELPAL; listed as Homo sapiens) [compound 4] | +++ (≥50 = +++)
5 (GLVDIMVHL; listed as Homo sapiens) [compound 5] | +++ (≥50 = +++)
163 (GLEERLYTA; listed as Homo sapiens) [compound 163] | ++ (≥20% = ++)
55 (HLFDKIIKI; listed as Homo sapiens) [compound 55] | +++ (≥50 = +++)
50 (ILLSVLHQL; listed as Homo sapiens) [compound 50] | +++ (≥50 = +++)
30 (IITEVITRL; listed as Homo sapiens) [compound 30] | +++ (≥50 = +++)
173 (RLIDIYKNV; listed as Homo sapiens) [compound 173] | +++ (≥50 = +++)
247 (NLLIDDKGTIKL; listed as Homo sapiens) [compound 247] | ++ (≥20% = ++)
86 (SLFSNIESV; listed as Homo sapiens) [compound 86] | +++ (≥50 = +++)
204 (SEWGSPHAAVP; listed as Homo sapiens) [compound 204] | +++ (≥50 = +++)
75 (ALLDGALQL; listed as Homo sapiens) [compound 75] | +++ (≥50 = +++)
85 (KLLDKPEQFL; listed as Homo sapiens) [compound 85] | ++ (≥20% = ++)
97 (KLFEKSTGL; listed as Homo sapiens) [compound 97] | +++ (≥50 = +++)
168 (VIFEGEPMYL; listed as Homo sapiens) [compound 168] | +++ (≥50 = +++)

Substance | Peptide exchange
241 (KQFEGTVEI; listed as Homo sapiens) [compound 241] | +++ (≥50 = +++)
109 (ILGSFELQL; listed as Homo sapiens) [compound 109] | +++ (≥50 = +++)
229 (YLYELEHAL; listed as Homo sapiens) [compound 229] | ++ (≥20% = ++)
207 (KLFETVEEL; listed as Homo sapiens) [compound 207] | +++ (≥50 = +++)
211 (LLTTVLINA; listed as Homo sapiens) [compound 211] | +++ (≥50 = +++)
282 (SLYALHVKA; listed as Homo sapiens) [compound 282] | ++ (≥20% = ++)
112 (ILAQDVAQL; listed as Homo sapiens) [compound 112] | +++ (≥50 = +++)
268 (SLDKDIVAL; listed as Homo sapiens) [compound 268] | ++ (≥20% = ++)
143 (MLWESIMRV; listed as Homo sapiens) [compound 143] | +++ (≥50 = +++)
259 (GPGIFPPPPPQP; listed as Homo sapiens) [compound 259] | + (≥10% = +)
286 (FLTEMVHFI; listed as Homo sapiens) [compound 286] | +++ (≥50 = +++)
119 (SLIEESEEL; listed as Homo sapiens) [compound 119] | ++ (≥20% = ++)
136 (LLWDAPAKC; listed as Homo sapiens) [compound 136] | +++ (≥50 = +++)
165 (SLLDYEVSI; listed as Homo sapiens) [compound 165] | +++ (≥50 = +++)
265 (FLLDKPQDLSI; listed as Homo sapiens) [compound 265] | +++ (≥50 = +++)
236 (KMSELQTYV; listed as Homo sapiens) [compound 236] | +++ (≥50 = +++)
182 (GLQDGFQITV; listed as Homo sapiens) [compound 182] | +++ (≥50 = +++)
178 (SLVSWQLLL; listed as Homo sapiens) [compound 178] | ++++ (≥75% = ++++)
192 (TLLPSSGLVTL; listed as Homo sapiens) [compound 192] | ++ (≥20% = ++)
144 (FLISQTPLL; listed as Homo sapiens) [compound 144] | +++ (≥50 = +++)
